Results on 13 molecules are retold here after patent publication US20150167106 (NEC Solution Innovators, Ltd., published 2015).

Data set [1] has as its target MIF (macrophage migration inhibitory factor) (UniProt P14174 P14174:2-115). The experiment in a line: SPR; specificity control. The following applies: tags: His tag; ATGen.
The target in data set [2] is BSA (bovine serum albumin) (Bos taurus, UniProt P02769 P02769:25-607). The experiment in a line: SPR; specificity control. The settings on record: tags: Nippon Gene.
BSA (bovine serum albumin), sequence (P02769 25-607, one chain of several): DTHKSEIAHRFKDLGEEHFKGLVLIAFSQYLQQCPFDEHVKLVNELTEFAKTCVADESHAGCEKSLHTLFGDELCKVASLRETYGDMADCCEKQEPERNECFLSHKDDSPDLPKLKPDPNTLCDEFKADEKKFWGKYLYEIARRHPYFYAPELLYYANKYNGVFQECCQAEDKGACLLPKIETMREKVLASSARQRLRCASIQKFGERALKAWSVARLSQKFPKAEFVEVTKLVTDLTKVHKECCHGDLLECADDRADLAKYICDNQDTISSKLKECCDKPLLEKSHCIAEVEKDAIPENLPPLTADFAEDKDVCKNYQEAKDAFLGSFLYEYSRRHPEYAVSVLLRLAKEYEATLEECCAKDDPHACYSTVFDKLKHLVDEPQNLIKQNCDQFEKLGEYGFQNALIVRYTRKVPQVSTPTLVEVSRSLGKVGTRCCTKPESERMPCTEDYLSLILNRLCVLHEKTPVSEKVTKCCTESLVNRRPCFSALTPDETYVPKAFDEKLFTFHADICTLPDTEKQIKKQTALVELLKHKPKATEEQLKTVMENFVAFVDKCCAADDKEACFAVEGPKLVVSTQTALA
For data set [3], the target named is HA1Aichi (hemagglutinin HA1) (Influenza A virus A/Aichi/2/1968, UniProt P03437 SEQ:17-345). The experiment in a line: SPR. The following applies: tags: Sino Biological #11707-V08H1.
In data set [4] the target is T1, HA1Aichi (hemagglutinin HA1) (Influenza A virus A/Aichi/2/1968, UniProt P03437 SEQ:17-345). The experiment in a line: SPR. The following applies: tags: Sino Biological #11707-V08H1. The source holds these as a separate data set.
Data set [5] has as its target T1, HA1Aichi (hemagglutinin HA1). The experiment in a line: SPR; negative control. The following applies: tags: Sino Biological #11707-V08H1.

MIF (macrophage migration inhibitory factor), sequence (P14174 2-115, one chain of several): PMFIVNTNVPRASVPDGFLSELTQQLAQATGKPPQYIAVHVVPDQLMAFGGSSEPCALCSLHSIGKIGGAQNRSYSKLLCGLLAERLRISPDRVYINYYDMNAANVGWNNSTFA

B1: RHA0006 (ssDNA)
DNA: GGTTAGCCCGTCCCGAGATAACTCGGTGTGTTGGGTTTGGGTTGGGTTGGGTCTTAACACACGGCGGCTGTAG
modifications: 3' poly(dA)24 tail for SPR
Take B1: the binding result in data set [1] and in data set [2] was “no binding” in each case.

B2: RHA0127 (ssDNA)
DNA: CCTGCACCCAGTGTCCCTGGGTCGGCTAATTTGGCATTTGGGGTGGTTTGGGGGGGGGACGGAGAGGAGGACGG
modifications: 3' poly(dA)24 tail for SPR
As to B2, the binding result in data set [1] and in data set [2] was “no binding” throughout.

B3: RHA0111 (ssDNA)
DNA: CCTGCACCCAGTGTCCCGTGCTCCGGGGGTTGGGCGTGGTGGGTCTGTCGGGTTTCGGACGGAGAGGAGGACGG
modifications: 3' poly(dA)24 tail for SPR
Regarding B3, the binding result in data set [1] and in data set [2] was “no binding” each time.

In the case of TTGGGGTTATTTTGGGAGGGCGGGGGTT (ssDNA) [RHA0385_s28], the binding result in data set [3] is listed as “binds”.

On to GGGTTTGGGTTGGGTTGGG (ssDNA, 3' poly(dA)24 tail for SPR) [RHA0006_s19], for which the binding result in data set [1] and in data set [2] was “no binding” each time.

B4: RHA0006_s19_d5 (ssDNA)
DNA: GGGTTTGGGTTGGGTTGGGTTTTTGGGTTTGGGTTGGGTTGGG
modifications: 3' poly(dA)24 tail for SPR; 3' biotin (detection) or 3' amino (capture) for ELAA
Consider B4, for which the binding result in data set [4] is given as “binds”.

B5: RHA0002 (ssDNA)
DNA: GGTTAGCCCGTCCCGAGATAACTCGGGGTGTTTGATGGTTTGGTCTGGTTGGCTTAACACACGGCGGCTGTAG
modifications: 3' poly(dA)24 tail for SPR
As to B5, the binding result in data set [1] and in data set [2] was “no binding” in each case.

B6: RHA1634_s60 (ssDNA)
DNA: GGGCACCCTCTCGCTGTACGGTTGATGCACGTTTCTTTCTCTTTATATTGCTGGGTGCCC
With B6, in data set [3], the binding result is given as “binds”.

As to GTGTTTGATGGTTTGGTCTGGTTGGCTTAACAC (ssDNA, 3' poly(dA)24 tail for SPR), the binding result in data set [1] and in data set [2] was “no binding” throughout.

As to GTGTTTGATGGTTTGGTCTGGTTGGCTTAACAC (ssDNA), the binding result in data set [3] is “binds”.

B7: RHA0471_s51 (ssDNA)
DNA: TCCTCGTTGGGGGTGGTGGTGGGTTTCGGTTCATGGGTGGGACGGAGAGGA
In the case of B7, the binding result in data set [3] is “binds”.

B8: RHA1635_s62 (ssDNA)
DNA: GGGGCCCACCCTCTCGCTGGCGGCTCTGTTCTGTTCTCGTCTCCTTGATTTCTGTGGGCCCC
Turning to B8, the binding result in data set [3] is “binds”.

Regarding CGGCGTTTGGTTGGCGTGAACCATTTTTAAGTT (ssDNA, 3' poly(dA)24 tail for SPR; 3' biotin for ELAA) [Control], the binding result in data set [5] is “no binding”.
